Test results reported in patent US20230028110A1 (ADAPTATE BIOTHERAPEUTICS, published 2023).

Tests used:
[1] = biological target: T1, Vδ1 chain of the γδ TCR on human Vδ1 γδ T cells (human); assay: flow cytometry binding to Vδ1 γδ T cells, donor ATS006; column head printed 'IC50', unit nM from the chart axis and FIG. 34D
T1 construct: whole, on cells; also called cell surface Vδ1 TCR; Vδ1-positive γδ T cells
Experimental: (§1) All incubation steps were performed at 4° C. and mAb binding was determined using flow cytometry to measure the median level of fluorescence. Logarithmic four parameter dose-response curves were fitted using GraphPad Prism 9. […] For Vδ1-positive γδ T cell, data is represented as the mean two donors.
(§2) A range of target cells were assayed to determine the specificity and affinity of Vδ1 mAb binding. This included expanded skin-derived Vδ1 γδ T-cells, HEK293T cells, Raji cells, and multiple leukocyte subsets within human primary blood mononuclear cells. Adherent or semi-adherent cells (skin-derived Vδ1 γδ T-cells, HEK293T) were detached from tissue culture flask and resuspended in PBS. Similarly, non-adherent cell types (Raji, PBMC), were harvested and resuspended in PBS. Cells were seeded at a final density of 100,000 cells per well in v-bottom 96-well plates. Cells underwent centrifugation and the cell pellets were resuspended in FcR blocking reagent according to the manufacturer's instructions, and incubated for 20 minutes at 4C prior to a further wash. […] To determine the quantity of mAb bound to the cell surface, the cells were then stained with a murine anti-human IgG secondary antibody, conjugated to APC (dilution: 1:100). For Vδ1 γδ T-cells, HEK293T and Raji, the cells were also stained solely with a viability dye.

[2] = biological target: T2, L1 (DV1-GV4), soluble human Vδ1/Vγ4 γδ TCR heterodimer in leucine zipper format (human); assay: SPR (Reichert 4SPR), antibody on Protein A chip, Vδ1 heterodimer at 6.25-100 nM as analyte
T2 construct: Biotinylated in the DELFIA ranking; also called Antigen L1 (TRDV1/TRGV4); human DV1-GV4; not shown: gamma chain: Vγ4 (TRGV4) domain on a TCR constant region, leucine zipper, histidine tag
T2 sequence (main, as listed by the source): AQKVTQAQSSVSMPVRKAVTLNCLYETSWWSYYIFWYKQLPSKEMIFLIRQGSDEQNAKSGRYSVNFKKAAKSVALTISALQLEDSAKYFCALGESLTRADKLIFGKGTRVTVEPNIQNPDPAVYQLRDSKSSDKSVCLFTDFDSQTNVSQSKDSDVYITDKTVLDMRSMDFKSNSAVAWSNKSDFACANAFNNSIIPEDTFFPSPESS

[3] = biological target: T3, Cyno DV1/GV77 antigen, recombinant cynomolgus Vδ1 heterodimer (cynomolgus monkey); assay: as above
T3 construct: also called cyno TRDV1; Cyno DV1-77; not shown: delta CDR3/J, TCR constant region, zipper and tag; the whole gamma chain GV77
T3 sequence (delta, as listed by the source limits assumed): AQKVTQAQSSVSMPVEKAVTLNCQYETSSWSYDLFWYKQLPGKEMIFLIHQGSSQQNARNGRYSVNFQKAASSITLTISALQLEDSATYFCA

[4] = biological target: T1, Vδ1 chain of the γδ TCR on human Vδ1 γδ …; assay: flow cytometry binding to Vδ1 γδ T cells, donor TS164; column head printed 'IC50', unit nM from the chart axis and FIG. 34D
Experimental: as §1, §2

[5] = biological target: T2, L1 (DV1-GV4), soluble human Vδ1/Vγ4 γδ …; assay: DELFIA ELISA, 0.4 nM human TRDV1 antigen; heat map cell of the clone
[6] = biological target: T2, L1 (DV1-GV4), soluble human Vδ1/Vγ4 γδ …; assay: DELFIA ELISA on antigen L1 (TRDV1/TRGV4), 1/2 dilution series of mAb
[7] = biological target: T1, Vδ1 chain of the γδ TCR on human Vδ1 γδ …; assay: cell-based or functional assay
[8] = biological target: T1, Vδ1 chain of the γδ TCR on human Vδ1 γδ …; assay: cell-based or functional assay; remark: listed apart in the source
[9] = biological target: T2, L1 (DV1-GV4), soluble human Vδ1/Vγ4 γδ …; assay: SPR (Reichert 4SPR), antibody on Protein A chip, human Vδ1 antigen as analyte; average of two replicates on two instruments
Text: (§3) The binding affinity of the antibodies to target (i.e. the Vδ1 chain of a γδ TCR) is established by SPR analysis using a Reichert 4SPR instrument (Reichert Technologies).
(§4) The binding interaction of Vδ1 and the affinity-matured mAbs were modelled according to Langmuir 1:1 binding.

[10] = biological target: T4, Her2 on Her2+ breast cancer cells (SK-BR-3, BT-474) (human, UniProt P04626 23-1255); assay: flow cytometry on SK-BR-3 cells, anti-human IgG secondary antibody
T4 construct: whole, on cells; also called ErbB-2; CD340

[11] = biological target: T3, Cyno DV1/GV77 antigen, recombinant …; assay: DELFIA ELISA, cyno antigen; heat map cell of the clone
[12] = biological target: T2, L1 (DV1-GV4), soluble human Vδ1/Vγ4 γδ …; assay: DELFIA, 100 nM biotinylated L1
[13] = biological target: T2, L1 (DV1-GV4), soluble human Vδ1/Vγ4 γδ …; assay: SPR (summary table)
[14] = biological target: T2, L1 (DV1-GV4), soluble human Vδ1/Vγ4 γδ …; assay: SPR, captured IgG, human DV1-GV4 flown over
[15] = biological target: T1, Vδ1 chain of the γδ TCR on human Vδ1 γδ …; assay: cell-based or functional assay; remark: listed apart in the source
[16] = biological target: T1, Vδ1 chain of the γδ TCR on human Vδ1 γδ …; assay: cell-based or functional assay; remark: listed apart in the source
[17] = biological target: T2, L1 (DV1-GV4), soluble human Vδ1/Vγ4 γδ …; assay: SPR (Reichert 4SPR), antibody on Protein A chip, human Vδ1 antigen as analyte; average of two replicates on two instruments; remark: listed apart in the source
Text: as §3, §4

[18] = biological target: T2, L1 (DV1-GV4), soluble human Vδ1/Vγ4 γδ …; assay: DELFIA ELISA, human antigen; heat map cell of the clone
Recombinant human PD-1 = biological target: T5, Recombinant human PD-1 (human, UniProt Q15116 25-167, limits assumed); assay: SPR (Reichert 4SPR), antibody on Protein A chip, antigen flown over; column head prints TIGIT
T5 construct: also called programmed cell death protein 1
T5 sequence (Q15116 25-167 limits assumed): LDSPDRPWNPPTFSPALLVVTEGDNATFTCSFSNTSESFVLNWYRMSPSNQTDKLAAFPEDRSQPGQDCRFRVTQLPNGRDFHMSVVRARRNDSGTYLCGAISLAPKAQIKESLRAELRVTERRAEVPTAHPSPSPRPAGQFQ
Experimental: (§5) Recombinant human Vδ1 heterodimer or human PD-1 was flown over the cell at a top concentration of 100 nM.

[19] = biological target: PD-1 on PD-1+ NFAT Jurkat cells (Promega, JA2191) (UniProt Q15116 25-288, limits assumed); assay: cell-based or functional assay
Chain of PD-1 on PD-1+ NFAT Jurkat cells (Promega, JA2191) (Q15116 25-288 limits assumed): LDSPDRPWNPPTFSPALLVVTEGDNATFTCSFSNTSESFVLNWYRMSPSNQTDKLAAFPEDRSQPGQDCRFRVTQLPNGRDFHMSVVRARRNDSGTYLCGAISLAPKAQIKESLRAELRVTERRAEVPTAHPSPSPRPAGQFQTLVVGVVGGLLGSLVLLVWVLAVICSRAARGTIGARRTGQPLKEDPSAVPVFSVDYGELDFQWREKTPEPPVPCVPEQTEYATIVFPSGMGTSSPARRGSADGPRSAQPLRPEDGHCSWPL

[20] = biological target: T2, L1 (DV1-GV4), soluble human Vδ1/Vγ4 γδ …; assay: SPR (Reichert 4SPR), antibody on Protein A chip, antigen flown over
Experimental: as §5

[21] = biological target: T1, Vδ1 chain of the γδ TCR on human Vδ1 γδ …; assay: flow cytometry on Vδ1 γδ T-cells, anti-human IgG secondary antibody, % cells bound IgG
Experimental: (§6) After washing, cells were incubated for a further 15 minutes with anti-human IgG secondary antibodies before washing and fixing. The amount of antibody bound to each cell type was determined by flow cytometry.

[22] = biological target: 4-1BB on 4-1BB+ NFAT Jurkat cells (human, UniProt Q07011); assay: cell-based or functional assay
Chain of 4-1BB on 4-1BB+ NFAT Jurkat cells (Q07011 24-255 limits assumed): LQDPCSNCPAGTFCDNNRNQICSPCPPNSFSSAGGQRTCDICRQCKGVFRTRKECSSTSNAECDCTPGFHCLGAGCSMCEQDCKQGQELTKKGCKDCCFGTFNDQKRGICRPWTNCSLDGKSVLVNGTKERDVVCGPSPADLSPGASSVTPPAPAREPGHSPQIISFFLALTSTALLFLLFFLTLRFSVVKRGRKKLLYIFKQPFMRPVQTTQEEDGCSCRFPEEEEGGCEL

[23] = biological target: T1, Vδ1 chain of the γδ TCR on human Vδ1 γδ …; assay: cell-based or functional assay; remark: listed apart in the source
[24] = biological target: T2, L1 (DV1-GV4), soluble human Vδ1/Vγ4 γδ …; assay: SPR (Reichert 4SPR), antibody on Protein A chip, antigen flown over; remark: listed apart in the source
Experimental: Recombinant human Vδ1 heterodimer or human 4-1BB was flown over the cell at a top concentration of 100 nM.

[25] = biological target: T1, Vδ1 chain of the γδ TCR on human Vδ1 γδ …; assay: flow cytometry on Vδ1 γδ T-cells, anti-human IgG secondary antibody, % cells bound IgG; remark: listed apart in the source
[26] = biological target: T1, Vδ1 chain of the γδ TCR on human Vδ1 γδ …; assay: cell-based or functional assay; remark: listed apart in the source
[27] = biological target: T1, Vδ1 chain of the γδ TCR on human Vδ1 γδ …; assay: flow cytometry on Vδ1 γδ T-cells, anti-human Fc secondary antibody, % IgG bound cells
Experimental: (§7) After washing, cells were incubated for a further 15 minutes with anti-human Fc secondary antibodies before washing and fixing. The amount of antibody bound to each cell type was determined by flow cytometry.

Recombinant human FAPα = Recombinant human FAPα (human, UniProt Q12884 26-760); assay: SPR (Reichert 4SPR), antibody on Protein A chip, antigen flown over
Experimental: (§8) Recombinant human Vδ1 heterodimer or human FAPα was flown over the cell at a concentration of 100 nM with the following parameters: 180 s association, 480 s dissociation, flowrate 25 μL/min, running buffer PBS+0.05% Tween 20. All experiments were performed at room temperature.

[28] = biological target: T2, L1 (DV1-GV4), soluble human Vδ1/Vγ4 γδ …; assay: as above; remark: listed apart in the source
Experimental: as §8

[29] = biological target: T6, FAPα on FAPα+ fibroblasts (human, UniProt Q12884 1-760); assay: flow cytometry on BJ fibroblasts, anti-human Fc secondary antibody, % IgG bound cells
T6 construct: whole, on cells; also called FAPα+ target cells (BJ fibroblasts, human dermal fibroblasts)
Experimental: as §7

[30] = biological target: T1, Vδ1 chain of the γδ TCR on human Vδ1 γδ …; assay: flow cytometry on Vδ1 γδ T-cells, anti-human IgG secondary antibody, % IgG bound cells
Experimental: as §6

[31] = biological target: T2, L1 (DV1-GV4), soluble human Vδ1/Vγ4 γδ …; assay: SPR (Reichert 4SPR), antibody on Protein A chip, antigen flown over; remark: listed apart in the source
Experimental: (§9) Recombinant human Vδ1 heterodimer or human MSLN was flown over the cell at a top concentration of 100 nM with the following parameters: 180 s association, 480 s dissociation, flowrate 25 μL/min, running buffer PBS+0.05% Tween 20. All experiments were performed at room temperature.

Recombinant human MSLN = biological target: T7, Recombinant human MSLN (human, UniProt Q13421 296-580, limits assumed); assay: SPR (Reichert 4SPR), antibody on Protein A chip, antigen flown over; column head prints FAPα
T7 construct: also called mesothelin
T7 sequence (Q13421 other isoform, or with tags, fused parts or gaps limits assumed): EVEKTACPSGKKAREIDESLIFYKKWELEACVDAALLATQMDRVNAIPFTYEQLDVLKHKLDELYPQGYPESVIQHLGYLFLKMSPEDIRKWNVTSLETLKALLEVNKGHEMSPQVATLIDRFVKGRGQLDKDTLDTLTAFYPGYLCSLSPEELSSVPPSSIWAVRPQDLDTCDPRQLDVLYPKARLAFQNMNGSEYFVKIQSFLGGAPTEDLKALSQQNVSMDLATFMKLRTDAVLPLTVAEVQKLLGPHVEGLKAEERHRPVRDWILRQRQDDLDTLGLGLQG
Experimental: as §9

[32] = biological target: T3, Cyno DV1/GV77 antigen, recombinant …; assay: SPR (Reichert 4SPR), antibody on Protein A chip

T1 sequence (A0A1B0GX56 22-115, stated change not applied): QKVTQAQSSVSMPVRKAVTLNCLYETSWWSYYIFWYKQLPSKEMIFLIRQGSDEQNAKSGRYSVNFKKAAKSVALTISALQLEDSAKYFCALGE

B1: 1245_P02_G04 (antibody, IgG1, V domains shown)
VH: QVQLQQSGPGLVKPSQTLSLTCAISGDSVSSKSAAWNWIRQSPSRGLEWLGRTYYRSKWSTDYAASVKSRITINPDTSKNQLSLQLNSVTPEDTAVYYCARTWSGYVDVWGQGTLVTVSS
VL: DIQMTQSPPALSASVGDRVTITCRASQDINDWLAWYQHKPGKAPKLLIYDASSLESGVPSRFSGSGSGTEFTLTISSLQPDDFATYYCQQSYSTPQVTFGQGTRLEIK
notes: also called ADT1-4; parental ADT1-4
EC50 [1]: 108 nM
Kd [2]: 47 nM
Kd [3]: 397 nM
EC50 [4]: 576 nM
ELISA signal (heat map) [5]: 1200
EC50 (read off the curve) [6]: ~0.07 µg/mL
IC50 TCR DR (no THP-1) [7]: 38.2 nM
IC90 TCR DR (noTHP-1) [7]: 72.4 nM
TCR downregulation IC50, soluble assay, added in solution [8]: 38.3 nM
Kd [9]: 149 nM
binding result [10]: no binding (tested: about 300 nM)
ELISA signal (heat map) [11]: 196
DELFIA signal at 100 nM L1 [12]: 5900 fluorescence units

B2: ADT1-4-1 (antibody, IgG1, V domains shown)
VH: EVQLQQSGPGLVKPSQTLSLTCAISGDSVSSKSAAWNWIRQSPSRGLEWLGRTYYRSKWSTDYAASVKSRITINPDTSKNQLSLQLNSVTPEDTAVYYCARTWVGYADVWGQGTLVTVSS
VL: DIQMTQSPPALSASVGDRVTITCRASQDINDWLAWYQHKPGKAPKLLIYDASSLESGVPLRFSGSGSGTEFTLTISSLQPDDFATYYCQQRYSTPIVTFGQGTRLEIK
notes: IgG1
Kd [13]: 0.08 nM
Kd [14]: 0.08 nM

B3: ADT1-7-61 (antibody, IgG1, V domains shown)
VH: EVQLVESGGGLVKPGGSLRLSCAASGFTFSDYYMSWIRQAPGKGLEWVSYISSSGSTIYYADSVKGRFTISRDNAKNSLYLQMNSLRAEDTAVYYCARDDYDDAFDIWGQGTLVTVSS
VL: DIQMTQSPSSLSASVGDRVTIACRAGQSIGTYLNWYQQKPGKAPKLLIYVASSLQSGVPSRFSGSGSGTEFTLTISSLQPEDFATYYCQQSASELLTFGRGTKVEIK
notes: IgG1
EC50 [1]: 93 nM
EC50 [4]: 196 nM
IC50 of TCR downregulation (Vδ1 TCR staining as % MFI, soluble antibody, 2 h, average of two γδ cell donors) [15]: 6.26 nM
IC50 TCR DR (no THP-1), one donor only [16]: 0.173 nM
Kd [17]: 1.04 nM
ELISA signal (heat map) [18]: 32700

B4: Anti-Vδ1xAnti-PD-1 (ADT1-4-2xpembrolizumab) bispecific antibody (bispecific antibody, human IgG1, kappa)
light: EIVLTQSPATLSLSPGERATLSCRASKGVSTSGYSYLHWYQQKPGQAPRLLIYLASYLESGVPARFSGSGSGTDFTLTISSLEPEDFAVYYCQHSRDLPLTFGGGTKVEIKRTVAAPSVFIFPPSDEQLKSGTASVVCLLNNFYPREAKVQWKVDNALQSGNSQESVTEQDSKDSTYSLSSTLTLSKADYEKHKVYACEVTHQGLSSPVTKSFNRGEC
heavy: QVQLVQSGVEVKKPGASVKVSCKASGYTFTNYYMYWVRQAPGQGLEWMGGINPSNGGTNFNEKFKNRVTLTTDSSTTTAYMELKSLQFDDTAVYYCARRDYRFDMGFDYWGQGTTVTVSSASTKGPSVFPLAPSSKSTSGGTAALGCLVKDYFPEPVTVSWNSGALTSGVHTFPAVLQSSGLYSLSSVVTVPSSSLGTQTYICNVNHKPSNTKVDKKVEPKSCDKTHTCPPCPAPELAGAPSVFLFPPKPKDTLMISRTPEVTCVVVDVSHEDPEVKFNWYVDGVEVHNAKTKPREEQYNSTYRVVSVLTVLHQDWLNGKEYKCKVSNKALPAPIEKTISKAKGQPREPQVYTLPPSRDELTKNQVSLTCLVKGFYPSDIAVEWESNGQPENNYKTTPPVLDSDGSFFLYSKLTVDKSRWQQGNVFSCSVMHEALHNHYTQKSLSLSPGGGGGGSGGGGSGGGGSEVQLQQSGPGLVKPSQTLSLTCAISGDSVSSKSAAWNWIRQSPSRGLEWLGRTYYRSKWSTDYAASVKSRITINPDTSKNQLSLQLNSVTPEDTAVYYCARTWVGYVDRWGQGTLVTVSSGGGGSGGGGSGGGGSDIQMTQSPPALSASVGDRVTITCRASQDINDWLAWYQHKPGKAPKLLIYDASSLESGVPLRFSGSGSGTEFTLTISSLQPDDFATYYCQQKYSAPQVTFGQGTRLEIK
notes: also called PD-1xADT1-4-2; Vδ1-PD-1 bispecific antibody
Kd (Recombinant human PD-1): 0.9 nM
EC50 (read off the curve), PD-1/PD-L1 blockade reporter assay [19]: ~1 nM
Kd [20]: 1.5 nM
EC50 (read off the curve) [21]: ~0.7 nM

B5: Anti-Vδ1xanti-4-1BB (ADT1-4-2xutomilumab) bispecific antibody (bispecific antibody, human IgG1, kappa)
light: DIQMTQSPPALSASVGDRVTITCRASQDINDWLAWYQHKPGKAPKLLIYDASSLESGVPLRFSGSGSGTEFTLTISSLQPDDFATYYCQQKYSAPQVTFGQGTRLEIKRTVAAPSVFIFPPSDEQLKSGTASVVCLLNNFYPREAKVQWKVDNALQSGNSQESVTEQDSKDSTYSLSSTLTLSKADYEKHKVYACEVTHQGLSSPVTKSFNRGEC
heavy: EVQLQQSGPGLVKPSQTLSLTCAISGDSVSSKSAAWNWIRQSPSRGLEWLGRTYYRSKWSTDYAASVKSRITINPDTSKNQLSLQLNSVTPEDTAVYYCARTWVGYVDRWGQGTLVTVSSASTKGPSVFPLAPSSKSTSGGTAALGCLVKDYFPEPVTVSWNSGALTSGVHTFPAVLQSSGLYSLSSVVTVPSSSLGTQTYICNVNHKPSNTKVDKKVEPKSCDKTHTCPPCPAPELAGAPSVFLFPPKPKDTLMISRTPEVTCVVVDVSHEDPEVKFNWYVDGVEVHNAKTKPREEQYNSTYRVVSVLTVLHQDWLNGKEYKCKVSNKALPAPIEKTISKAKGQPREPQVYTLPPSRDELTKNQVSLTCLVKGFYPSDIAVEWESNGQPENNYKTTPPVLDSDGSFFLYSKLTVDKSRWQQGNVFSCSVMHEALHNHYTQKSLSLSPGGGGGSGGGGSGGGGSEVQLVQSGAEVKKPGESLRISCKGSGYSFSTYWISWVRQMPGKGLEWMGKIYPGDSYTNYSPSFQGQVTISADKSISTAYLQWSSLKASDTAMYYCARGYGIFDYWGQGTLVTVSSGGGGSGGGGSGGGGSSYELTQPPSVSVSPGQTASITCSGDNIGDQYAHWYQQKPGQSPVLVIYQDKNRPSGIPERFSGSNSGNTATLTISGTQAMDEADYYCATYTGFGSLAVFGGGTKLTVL
notes: also called ADT1-4-2x 4-1BB; Vδ1-4-1BB bispecific antibody
EC50 (read off the curve), 4-1BB+ NFAT Jurkat activation assay [22]: 10 to 20 nM
IC50 (read off the curve), Vδ1 TCR downregulation, γδ T-cells with activated 4-1BB+ CD8 T-cells [23]: ~0.1 nM
Kd [24]: 1.2 nM
EC50 (read off the curve) [25]: ~0.3 nM
IC50 (read off the curve), Vδ1 TCR downregulation, γδ T-cells alone [26]: ~0.2 nM

B6: Anti-Vδ1xFAPα (ADT1-4-2x sibrotuzumab) bispecific antibody (bispecific antibody, human IgG1, kappa)
light: DIQMTQSPPALSASVGDRVTITCRASQDINDWLAWYQHKPGKAPKLLIYDASSLESGVPLRFSGSGSGTEFTLTISSLQPDDFATYYCQQKYSAPQVTFGQGTRLEIKRTVAAPSVFIFPPSDEQLKSGTASVVCLLNNFYPREAKVQWKVDNALQSGNSQESVTEQDSKDSTYSLSSTLTLSKADYEKHKVYACEVTHQGLSSPVTKSFNRGEC
heavy: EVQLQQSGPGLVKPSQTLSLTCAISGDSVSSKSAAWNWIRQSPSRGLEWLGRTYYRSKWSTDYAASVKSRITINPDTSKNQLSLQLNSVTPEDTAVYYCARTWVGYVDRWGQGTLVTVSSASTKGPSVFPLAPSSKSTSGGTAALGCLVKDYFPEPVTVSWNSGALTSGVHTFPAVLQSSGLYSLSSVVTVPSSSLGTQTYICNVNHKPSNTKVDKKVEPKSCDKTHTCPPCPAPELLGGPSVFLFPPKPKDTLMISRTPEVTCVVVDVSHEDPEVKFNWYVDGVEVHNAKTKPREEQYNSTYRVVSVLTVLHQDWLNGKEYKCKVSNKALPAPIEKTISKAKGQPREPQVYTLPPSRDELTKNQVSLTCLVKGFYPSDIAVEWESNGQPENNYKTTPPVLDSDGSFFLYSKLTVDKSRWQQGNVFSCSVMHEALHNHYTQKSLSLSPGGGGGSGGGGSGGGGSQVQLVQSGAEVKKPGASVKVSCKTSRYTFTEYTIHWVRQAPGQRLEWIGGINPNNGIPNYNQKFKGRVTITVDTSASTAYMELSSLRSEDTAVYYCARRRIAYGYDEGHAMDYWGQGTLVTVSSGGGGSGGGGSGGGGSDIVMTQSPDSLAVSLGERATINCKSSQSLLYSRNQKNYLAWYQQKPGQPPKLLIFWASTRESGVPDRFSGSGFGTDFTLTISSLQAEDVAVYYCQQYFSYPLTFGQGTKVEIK
notes: also called ADT1-4-2 × FAP alpha; Vδ1-FAPα bispecific antibody
EC50 (read off the curve) [27]: ~0.5 nM
Kd (Recombinant human FAPα): 1.4 nM
Kd [28]: 0.26 nM
EC50 (read off the curve) [29]: ~1 nM

B7: Anti-Vδ1xMSLN (ADT1-4-2xMSLN) bispecific antibody (bispecific antibody, human IgG1, kappa)
light: DIQMTQSPPALSASVGDRVTITCRASQDINDWLAWYQHKPGKAPKLLIYDASSLESGVPLRFSGSGSGTEFTLTISSLQPDDFATYYCQQKYSAPQVTFGQGTRLEIKRTVAAPSVFIFPPSDEQLKSGTASVVCLLNNFYPREAKVQWKVDNALQSGNSQESVTEQDSKDSTYSLSSTLTLSKADYEKHKVYACEVTHQGLSSPVTKSFNRGEC
heavy: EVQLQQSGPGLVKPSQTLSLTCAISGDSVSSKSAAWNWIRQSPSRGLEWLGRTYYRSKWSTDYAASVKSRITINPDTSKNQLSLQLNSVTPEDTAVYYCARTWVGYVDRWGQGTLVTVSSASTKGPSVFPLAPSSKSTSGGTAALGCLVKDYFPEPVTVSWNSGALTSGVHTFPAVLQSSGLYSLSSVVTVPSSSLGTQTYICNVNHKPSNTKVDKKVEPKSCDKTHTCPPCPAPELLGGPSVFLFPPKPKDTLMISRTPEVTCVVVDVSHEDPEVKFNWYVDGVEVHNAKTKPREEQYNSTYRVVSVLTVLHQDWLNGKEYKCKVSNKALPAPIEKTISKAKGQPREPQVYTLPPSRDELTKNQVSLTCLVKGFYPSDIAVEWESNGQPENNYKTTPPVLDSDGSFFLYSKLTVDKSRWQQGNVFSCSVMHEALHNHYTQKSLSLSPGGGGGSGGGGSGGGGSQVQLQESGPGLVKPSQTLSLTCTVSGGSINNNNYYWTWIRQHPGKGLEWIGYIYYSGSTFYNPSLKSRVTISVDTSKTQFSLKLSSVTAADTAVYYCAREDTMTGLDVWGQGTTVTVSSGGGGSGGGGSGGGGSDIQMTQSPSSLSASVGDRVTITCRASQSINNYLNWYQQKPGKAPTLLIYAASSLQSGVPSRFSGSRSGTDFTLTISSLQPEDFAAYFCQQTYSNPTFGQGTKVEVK
notes: also called ADT1-4-2 × MSLN; MSLN-Vδ1 bispecific antibody
EC50 (read off the curve) [30]: ~0.5 nM
Kd [31]: 0.026 nM
Kd (Recombinant human MSLN): 0.87 nM

B8: ADT1-4 (S74L) (antibody, V domains shown)
VH: QVQLQQSGPGLVKPSQTLSLTCAISGDSVSSKSAAWNWIRQSPSRGLEWLGRTYYRSKWSTDYAASVKSRITINPDTSKNQLSLQLNSVTPEDTAVYYCARTWSGYVDVWGQGTLVTVSS
VL: DIQMTQSPPALSASVGDRVTITCRASQDINDWLAWYQHKPGKAPKLLIYDASSLESGVPLRFSGSGSGTEFTLTISSLQPDDFATYYCQQSYSTPQVTFGQGTRLEIKR
notes: Captured on Protein A; also called ADT1-4 (574L)
fold increase in affinity against ADT1-4 [32]: ~5 fold
Kd [2]: 3.5 nM
Kd [3]: 77 nM
